Source: patent publication US20110217291A1

B1: FcγRIIA/RIA-CH6 (soluble hybrid receptor: first Ig domain of FcγRIIA followed by second and third Ig domains of FcγRIA, C-terminal six His tag) (receptor)
chain: AAPPKAVLKLEPPWINVLQEDSVTLTCQGARSPESDSIQWFHNGNLIPTHTQPSYRFKANNNDSGEYTCQTGQTSLSDPVHLTVLSEWLLLQVSSRVFTEGEPLALRCHAWKDKLVYNVLYYRNGKAFKFFHWNSNLTILKTNISHNGTYHCSGMGKHRYTSAGISVTVKELFPAPVLNASVTSPLLEGNLVTLSCETKLLLQRPGLQLYFSFYMGSKTLRGRNTSSEYQILTARREDSGLYWCEAATEDGNVLKRSPELELQVLGGSGGHHHHHH
B2: FcγRIIIA/RIA-CH6 (soluble hybrid receptor: first Ig domain of FcγRIIIA followed by second and third Ig domains of FcγRIA, C-terminal six His tag) (receptor)
chain: EDLPKAVVFLEPQWYRVLEKDSVTLKCQGAYSPEDNSTQWFHNESLISSQASSYFIDAATVDDSGEYRCQTNLSTLSDPVQLEVHIGWLLLQVSSRVFTEGEPLALRCHAWKDKLVYNVLYYRNGKAFKFFHWNSNLTILKTNISHNGTYHCSGMGKHRYTSAGISVTVKELFPAPVLNASVTSPLLEGNLVTLSCETKLLLQRPGLQLYFSFYMGSKTLRGRNTSSEYQILTARREDSGLYWCEAATEDGNVLKRSPELELQVLGGSGGHHHHHH

How the values were obtained:
[1] = target: IgG of IgG Sepharose 6 Fast Flow resin (GE Healthcare); experiment: batch binding of 293F conditioned media to IgG Sepharose, Western blot quantitation, n=2
[2] = target: IgG of IgG Sepharose 6 Fast Flow resin (GE Healthcare); experiment: IgG-Sepharose column, 24 h CHO conditioned media, Western blot

Binder	percent of total expressed in IgG Sepharose flow-through (aggregate amount) [1]	percent of total expressed recovered from IgG resin [1]	percent of total applied bound to IgG-Sepharose [2]	percent of total applied in the wash (unbound) [2]
B1	14.2%	40%	–	–
B2	36%	82%	53%	47%
